Experimental data from patent US9526786B2, “Thermostabilization of proteins” (The Trustee of Columbia University in the City of New York, priority 2007, dated 2016).

What was measured:
[1] = Michaelis-Menten kinetics of cocaine hydrolysis (absorbance at 240 nm); assay type: biochemical; settings: cocaine
Protocol: The initial rates (of decay) were determined by following the change in the intrinsic absorbance of cocaine at 240 nm (6700 M^1 cm^1)(Xie et al., 1999) using a SpectraMax Plus 384 UV plate reader (Molecular Devices, Sunnyvale, Calif.) using SOFTmax Pro software (Version 3.1.2). The reaction was initiated by adding 100 μL of a 2× enzyme solution (100 mM phosphate buffer, pH 7.4 and 300 mM NaCl) to 100 μL of a 2× cocaine solution (50 μg/mL enzyme, 100 mM Phosphate Buffer, pH 7.4 and 300 mM NaCl). All assays were performed with 100 μM DTT unless indicated otherwise. Final cocaine concentrations were as follows: 125, 62.5, 31.25, 15.63, 7.81, 3.91, 1.95, and 0.977 μM. Vmax and Km values were calculated using Prism (GraphPad Software, San Diego). For stability measurements, wild type and mutant enzymes were diluted to 2× concentration and incubated at 37° C. for the times indicated. At the end of each time point, an aliquot was removed and kinetic behavior was observed as outlined above.
In vitro kinetic assays. […] Initial rates were then used to determine Michaelis-Menten parameters. To assess thermal stability, enzyme preparations were preincubated at 37° C. for various lengths of time, prior to measurement of residual activities (Table 1 and FIG. 23).
Determination of Catalytic Efficiency. To determine the catalytic activity a spectrophometric assay was performed. Samples of L169K/G173Q CocE were added to a 96-well UV permeable plate containing increasing cocaine concentrations (0.5, 2.5, 5, 12.5, 25, 50, 100, and 150 μM) to give a final concentration of 10 ng/ml CocE in a final volume of 200 μl. The change in absorbance at 240 nm was measured over 20 minutes, with readings every 10 seconds, by a SpectraMax Plus 384 UV plate reader (Molecular Devices, Sunnyvale, Calif.) using SOFTmax Pro software (Version 3.1.2). The change in absorbance was converted to the change in concentration and furthermore the rate of decay per mole enzyme is determined (Kcat). Kcat and Km of the enzyme are determined using Prism (GraphPad software, San Diego).

[2] = 37° C., absence of DTT
[3] = Circular dichroism melting temperature of CocE proteins alone; assay type: physicochemical; settings: circular dichroism, enzyme alone
Protocol: Further characterization of the stability of wild type (WT) CocE and thermostable mutants was performed through circular dichroism, which detects small changes in protein conformation and structure. Analysis by repeated CD measurements at increasing temperatures allows analysis of the thermodynamics and melting temperature (TM) of the protein, so long as the melting is reversible (i.e. the protein resumes it's original conformation upon cooling). […] However CD is still of value in determining the temperature to unfolding.

[4] = test system: cocaine-induced lethality; assay: In vivo potency of protection against cocaine-induced lethality; design: species or system NIH-Swiss mice; settings: i.v. pretreatment 1 min prior to i.p. cocaine
[5] = Temperature-dependent decay in esterase activity (30 min pre-incubation); assay type: biochemical
Protocol: FIG. 26 is a graph showing temperature-dependent decay in esterase activity. 50 ng/ml wild-type CocE and the mutants were pre-incubated for 30 min at temperatures indicated (° C.) and activity measured (Xie et al., 1999). The activity of each mutant remaining (as a percentage of the maximal activity, Vmax, without preincubation) following pre-incubation are illustrated. Wild-type CocE (open bars) appears to inactivate between 30-35° C. whereas T172R/G173Q (shaded bars) and L169K (solid) both display enhance thermal stability (inactivation at 40-45° C.).
To test whether the improved enzymatic stability at 37° C. represents improved thermal stability of the protein fold, the capacity of the CocE at progressively higher temperatures were assessed (FIG. 26). The activity of wt CocE plummets precipitously after 30 min at approximately 30-35° C. Both L169K and T172R/G173Q each are inactivated at a higher temperature (40-45° C.). Circular dichroism analysis (near UV analysis) at varying temperatures, comparing wt-CocE and T172R/G173Q have melting temperatures in concordance with the loss of catalytic activity.

[6] = test system: cocaine-induced lethality; assay: In vivo duration of protection against cocaine-induced lethality; design: species or system NIH-Swiss mice; settings: 1 mg i.v.; cocaine 180 mg/kg i.p.
Protocol: In vivo protection against cocaine lethality. Male NIH-Swiss mice (25-32 g) were obtained from Harlan Inc. (Indianapolis, Ind.) and were housed in groups of 6 mice per cage. All mice were allowed ad libitum access to food and water, and were maintained on a 12-h light-dark cycle with lights on at 06.30 AM in a room kept at a temperature of 21-22° C. Experiments were performed in accordance with the Guide for the Care and Use of Laboratory Animals as adopted and promulgated by the National Institutes of Health. The experimental protocols were approved by the University Committee on the Use and Care of Animals at the University of Michigan.
Cocaine-induced toxicity was characterized by the occurrence of lethality, as defined by the cessation of observed movement and respiration. Mice were placed individually in Plexiglas observation chambers (16×28×20 cm high) to be habituated for 15 min before drug administration. Following intra-peritoneal (i.p.) cocaine administration, the mouse was immediately placed individually in the same chamber for observation. The presence or absence of lethality was recorded for 60 min following cocaine administration. The mouse was placed in a small restraint chamber (Outer tube diameter: 30 mm; Inner tube diameter: 24 mm) that left the tail exposed. The tail was cleansed with an alcohol wipe and a 30G1/2 precision glide needle (Fisher Scientific, Pittsburgh, Pa.) was inserted into one of the side veins for infusion. The i.v. injection volume of CocE or CocE mutant was 0.2 mL per mouse. Sterile gauze and pressure were applied to the injection site to staunch the bleeding.
Lethality was monitored following injection at 1, 5, 10, or 30 min, or 1, 2, 3, 4, 5 hours after enzyme administration. Each treatment used 8 mice to assess the percent of lethality (i.e., protection) in mice pretreated with a single dose of an esterase at a single time point.
These values were used to compare the degree of rightward shifts of cocaine's dose-response curve in the absence or presence of the enzyme pretreatment. In the time course study, a time point for duration of protection (i.e., 50% of lethality) was estimated by using each time course curve crossing 50% occurrence of lethality.
Evaluation of in vivo half life. CocE is administered IV to the tail vein in a volume of 0.2 ml. Animals are challenged with 180 mg/kg cocaine delivered intraperitoneally at a given time after CocE administration.

[7] = mouse, in vivo; cited from earlier work

B1: wt-CocE: cocaine esterase of Rhodococcus sp. MB 1, SEQ ID NO:1 (protein, listed as Rhodococcus sp.)
chain: MVDGNYSVASNVMVPMRDGVRLAVDLYRPDADGPVPVLLVRNPYDKFDVFAWSTQSTNWLEFVRDGYAVVIQDTRGLFASEGEFVPHVDDEADAEDTLSWILEQAWCDGNVGMFGVSYLGVTQWQAAVSGVGGLKAIAPSMASADLYRAPWYGPGGALSVEALLGWSALIGTGLITSRSDARPEDAADFVQLAAILNDVAGAASVTPLAEQPLLGRLIPWVIDQVVDHPDNDESWQSISLFERLGGLATPALITAGWYDGFVGESLRTFVAVKDNADARLVVGPWSHSNLTGRNADRKFGIAATYPIQEATTMHKAFFDRHLRGETDALAGVPKVRLFVMGIDEWRDETDWPLPDTAYTPFYLGGSGAANTSTGGGTLSTSISGTESADTYLYDPADPVPSLGGTLLFHNGDNGPADQRPIHDRDDVLCYSTEVLTDPVEVTGTVSARLFVSSSAVDTDFTAKLVDVFPDGRAIALCDGIVRMRYRETLVNPTLIEAGEIYEVAIDMLATSNVFLPGHRIMVQVSSSNFPKYDRNSNTGGVIAREQLEEMCTAVNRIHRGPEHPSHIVLPIIKR
In the case of B1, the “Kcat(mol · s^−1 · mol^−1)” value [1] is reported as 2323 mol · s^−1 · mol^−1, the “half-time of inactivation, τinact” value [2] is reported as “approximately 25 min” and the melting temperature [3] is reported as “approximately 39 °C”. For the same molecule, the “protection against cocaine-induced lethality” value [4] was “protected”, the temperature of inactivation [5] was 30-35 °C and the “LT50, pretreatment time to 50% lethality” value [6] was “approximately 14 min”. The “effective half-life in the blood stream” value [7] was about 10 min.
